Results as given in paper PMC4700190.
Blank lines part the entries; values can stand above or below the substance they belong to.

Tests used:
[1] = target: CynD T66C (Bacillus pumilus); assay: SEC; Superdex 200 10/300 GL, 0.1 M MOPS pH 7.7, 0.5 ml/min; His-tag purified protein; column calibrated with a marker kit, and with wild-type B. pumilus CynD (18-mer) and P. stutzeri CynD (14-mer)
[2] = target: CynD Y233C (Bacillus pumilus); assay: as above
[3] = target: CynD H62C (Bacillus pumilus); assay: as above
[4] = target: CynD E235C (Bacillus pumilus); assay: as above
[5] = target: CynD K68C (Bacillus pumilus); assay: as above
[6] = target: CynD M223C (Bacillus pumilus); assay: as above
[7] = target: CynD G61C (Bacillus pumilus); assay: as above
[8] = target: CynD F57C (Bacillus pumilus); assay: as above
[9] = target: CynD R67C (Bacillus pumilus)
[10] = target: CynD Q230C (Bacillus pumilus); assay: SEC; Superdex 200 10/300 GL, 0.1 M MOPS pH 7.7, 0.5 ml/min; His-tag purified protein; column calibrated with a marker kit, and with wild-type B. pumilus CynD (18-mer) and P. stutzeri CynD (14-mer)
[11] = target: CynD from Pseudomonas stutzeri (Pseudomonas stutzeri); assay: as above
[12] = target: CynD E72C (Bacillus pumilus); assay: as above
[13] = target: CynD C225A (Bacillus pumilus); assay: as above
[14] = target: CynD W56C (Bacillus pumilus); assay: as above
[15] = target: CynD E64C (Bacillus pumilus); assay: as above
[16] = target: CynD P63C (Bacillus pumilus); assay: as above
[17] = target: CynD Y70C (Bacillus pumilus); assay: as above
[18] = target: CynD R231C (Bacillus pumilus); assay: as above
[19] = target: CynD F234C (Bacillus pumilus); assay: as above
[20] = target: CynD E222C (Bacillus pumilus); assay: as above
[21] = target: CynD T227C (Bacillus pumilus); assay: as above
[22] = target: CynD F69C (Bacillus pumilus); assay: as above
[23] = target: CynD F59C (Bacillus pumilus); assay: as above
[24] = target: CynD I60C (Bacillus pumilus); assay: as above
[25] = target: CynD A58C (Bacillus pumilus); assay: as above
[26] = target: CynD E229C (Bacillus pumilus); assay: as above
[27] = target: CynD H71C (Bacillus pumilus); assay: as above
[28] = target: CynD P55C (Bacillus pumilus); assay: as above
[29] = target: cyanide dihydratase from Bacillus pumilus (CynD), wild type (Bacillus pumilus); assay: as above
[30] = target: CynD Y65C (Bacillus pumilus); assay: as above
[31] = target: CynD D232C (Bacillus pumilus); assay: as above
[32] = target: CynD L226C (Bacillus pumilus); assay: as above
[33] = target: CynD I224C (Bacillus pumilus); assay: as above

Substance: CynD T66C (enzyme)
stoichiometry N [1]: 16 subunits

Substance: CynD Y233C (enzyme)
stoichiometry N [2]: 16 subunits

Substance: CynD H62C (enzyme)
stoichiometry N [3]: 18 subunits

Substance: CynD E235C (enzyme)
stoichiometry N [4]: 18 subunits

Substance: CynD K68C (enzyme)
stoichiometry N [5]: 18 subunits

Substance: CynD G61C (enzyme)
stoichiometry N [7]: 14 subunits

Substance: CynD from Pseudomonas stutzeri (enzyme)
stoichiometry N [11]: 14 subunits

Substance: CynD E72C (enzyme)
stoichiometry N [12]: 18 subunits

Substance: CynD C225A (enzyme)
stoichiometry N [13]: 18 subunits

Substance: CynD E64C (enzyme)
stoichiometry N [15]: 16 subunits

Substance: CynD P63C (enzyme)
stoichiometry N [16]: 18 subunits

Substance: CynD Y70C (enzyme)
stoichiometry N [17]: 16 subunits

Substance: CynD R231C (enzyme)
stoichiometry N [18]: 18 subunits

Substance: CynD F234C (enzyme)
stoichiometry N [19]: 16 subunits

Substance: CynD T227C (enzyme)
stoichiometry N [21]: 18 subunits

Substance: CynD F69C (enzyme)
stoichiometry N [22]: 16 subunits

Substance: CynD F59C (enzyme)
stoichiometry N [23]: 18 subunits

Substance: CynD P55C (enzyme)
stoichiometry N [28]: 18 subunits

Substance: cyanide dihydratase from Bacillus pumilus (CynD), wild type (enzyme)
stoichiometry N [29]: 18 subunits

Substance: CynD L226C (enzyme)
stoichiometry N [32]: 18 subunits

Continued, values first:

stoichiometry N [6]: 18 subunits
Substance: CynD M223C (enzyme)

stoichiometry N [8]: 14 subunits
Substance: CynD F57C (enzyme)

activity of the purified protein relative to wild type, picric acid cyanide assay [9]: < 10%
Substance: CynD R67C (enzyme)

stoichiometry N [10]: 18 subunits
Substance: CynD Q230C (enzyme)

stoichiometry N [14]: 16 subunits
Substance: CynD W56C (enzyme)

stoichiometry N [20]: 18 subunits
Substance: CynD E222C (enzyme)

stoichiometry N [24]: 18 subunits
Substance: CynD I60C (enzyme)

stoichiometry N [25]: 18 subunits
Substance: CynD A58C (enzyme)

stoichiometry N [26]: 18 subunits
Substance: CynD E229C (enzyme)

stoichiometry N [27]: 16 subunits
Substance: CynD H71C (enzyme)

stoichiometry N [30]: 18 subunits
Substance: CynD Y65C (enzyme)

stoichiometry N [31]: 18 subunits
Substance: CynD D232C (enzyme)

stoichiometry N [33]: 18 subunits
Substance: CynD I224C (enzyme)
